This is an account of results in publication PMC2770665.

Data set [1] deals with T1, EcoRII-C (UniProt P14633 183-404).
T1 sequence: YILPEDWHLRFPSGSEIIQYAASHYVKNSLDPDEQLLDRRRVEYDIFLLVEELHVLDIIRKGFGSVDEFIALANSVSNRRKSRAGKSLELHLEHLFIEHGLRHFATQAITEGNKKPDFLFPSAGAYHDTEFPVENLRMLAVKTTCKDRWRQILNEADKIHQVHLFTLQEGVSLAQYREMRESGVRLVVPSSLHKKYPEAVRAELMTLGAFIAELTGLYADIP
The data set can be described thus: EMSA.

Data set [2] deals with T2, EcoRII-N (His-tagged) (UniProt P14633 1-180).
T2 sequence: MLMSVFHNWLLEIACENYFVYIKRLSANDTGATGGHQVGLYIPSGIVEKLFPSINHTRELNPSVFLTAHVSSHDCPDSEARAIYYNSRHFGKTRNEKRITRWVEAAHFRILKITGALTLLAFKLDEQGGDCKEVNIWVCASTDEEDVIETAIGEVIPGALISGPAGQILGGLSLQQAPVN
Briefly: EMSA.

B1: DM 16-mer (dsDNA)
DNA 1: CGTAGCCTGGTCGATC
DNA 2: GATCGACCAGGCTACG
modifications: 5-methylcytosine at strand 1 position 7 and strand 2 position 8
In the case of B1, the binding result in data set [1] was “no binding”.

B2: HM(A) 16-mer (dsDNA)
DNA 1: CGTAGCCTGGTCGATC
DNA 2: GATCGACCAGGCTACG
modifications: 5-methylcytosine at strand 2 position 8 (second C of CCAGG)
With B2, the binding result in data set [2] is given as “no binding”.

B3: T/2 25-mer (dsDNA)
DNA 1: CGCACGACTTCCTGGAAGAGCACGC
DNA 2: GCGTGCTCTTCCAGGAAGTCGTGCG
modifications: strand 2 position 13 is 2-aminopurine (written A) replacing central A
In the case of B3, the binding result in data set [2] is recorded as “no binding”.

B4: HM(T) 16-mer (dsDNA)
DNA 1: CGTAGCCTGGTCGATC
DNA 2: GATCGACCAGGCTACG
modifications: 5-methylcytosine at strand 1 position 7 (second C of CCTGG)
B4: in data set [2], the binding result is recorded as “no binding”.
